Results as given in PMC2943609.

Columns and labels:
CggR [1] = biological target: T1, CggR (Bacillus subtilis, UniProt O32253 1-340); assay: SEC and SAXS
CggR [2] = biological target: T1, CggR; assay: two-photon FCCS
CggR [3] = biological target: T1, CggR; assay: SEC and SAXS; remark: listed apart in the source

T1 sequence (O32253 whole entry): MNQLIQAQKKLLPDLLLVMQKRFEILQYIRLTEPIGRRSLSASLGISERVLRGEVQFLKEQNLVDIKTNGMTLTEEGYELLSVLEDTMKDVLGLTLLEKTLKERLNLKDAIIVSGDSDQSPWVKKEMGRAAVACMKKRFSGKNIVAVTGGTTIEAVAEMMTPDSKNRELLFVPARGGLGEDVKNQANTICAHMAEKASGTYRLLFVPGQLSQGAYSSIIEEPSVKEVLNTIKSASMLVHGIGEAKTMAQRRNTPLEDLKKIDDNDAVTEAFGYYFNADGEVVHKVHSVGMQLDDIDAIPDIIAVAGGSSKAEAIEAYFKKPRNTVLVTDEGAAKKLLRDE

B1: OLR full-length gapA operator, 45 bp (dsDNA)
DNA 1: TGACGGGACGTTTTTTGTCATAGCGGGACATATAATGTCCAGCAA
DNA 2: TTGCTGGACATTATATGTCCCGCTATGACAAAAAACGTCCCGTCA
binding result (CggR [1]): binds

B2: OR 23 bp, fluorescent (mix of two singly labelled duplexes) (dsDNA)
DNA 1: TAGCGGGACATATAATGTCCAGC
DNA 2: GCTGGACATTATATGTCCCGCTA
binding result (CggR [2]): binds

B3: OR right half-operator, 23 bp (dsDNA)
DNA 1: TAGCGGGACATATAATGTCCAGC
DNA 2: GCTGGACATTATATGTCCCGCTA
binding result (CggR [3]): binds
